Measurements published in article PMC9436306 (Proceedings of the National Academy of Sciences of the …, 2022).

Legend:
[1] = target: T1, ESCRT-I complex (TSG101, VPS28, VPS37B, MVB12A), Cy3-labeled (human, UniProt Q99816 1-390; Q9UK41 1-221; Q9H9H4 1-285; Q96EY5 1-273); experiment: recruitment to giant unilamellar vesicles (GUVs), confocal fluorescence microscopy; ESCRT-I/II pathway: ALG-2 200 nM, ESCRT-I (Cy3) 50 nM, with or without ESCRT-II 200 nM and CHMP6 (Atto 488) 400 nM, incubated 15 min in reaction buffer, then 30% DOPS GUVs added and imaged after 15 min; ESCRT-I kept at a concentration at which it did not bind GUVs on its own; details: both partners purified
T1 construct: TSG101, subunit of human ESCRT-I; VPS28, subunit of human ESCRT-I; VPS37B, subunit of human ESCRT-I; MVB12A, subunit of human ESCRT-I; Labeled with sulpho-Cy3 maleimide on native surface-exposed cysteines; It calls human ESCRT-I a soluble heterotetramer; also called ESCRT-I (Cy3); source: HEK293 cells, purified (StrepTactin Sepharose, gel filtration); copies: + + +
T1 sequence (Q99816 whole entry, chain 1 of 4, other chains not shown): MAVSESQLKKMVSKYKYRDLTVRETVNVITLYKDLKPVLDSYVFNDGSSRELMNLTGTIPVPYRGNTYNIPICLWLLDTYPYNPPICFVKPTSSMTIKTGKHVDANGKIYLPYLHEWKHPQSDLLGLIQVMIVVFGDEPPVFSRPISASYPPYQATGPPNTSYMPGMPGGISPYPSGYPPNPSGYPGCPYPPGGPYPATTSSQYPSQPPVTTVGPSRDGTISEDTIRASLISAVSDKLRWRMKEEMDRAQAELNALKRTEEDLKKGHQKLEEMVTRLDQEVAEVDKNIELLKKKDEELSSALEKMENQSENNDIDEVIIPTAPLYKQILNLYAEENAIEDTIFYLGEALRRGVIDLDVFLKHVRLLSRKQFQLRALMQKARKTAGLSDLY
T1 sequence (Q9UK41 whole entry, chain 2 of 4, other chains not shown): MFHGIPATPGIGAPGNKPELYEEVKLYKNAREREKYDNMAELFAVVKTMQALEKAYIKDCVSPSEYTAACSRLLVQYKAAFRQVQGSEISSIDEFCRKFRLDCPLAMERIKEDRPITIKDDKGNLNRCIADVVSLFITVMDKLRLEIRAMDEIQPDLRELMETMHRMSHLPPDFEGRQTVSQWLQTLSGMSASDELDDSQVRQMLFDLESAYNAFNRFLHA
T1 sequence (Q9H9H4 whole entry, chain 3 of 4, other chains not shown): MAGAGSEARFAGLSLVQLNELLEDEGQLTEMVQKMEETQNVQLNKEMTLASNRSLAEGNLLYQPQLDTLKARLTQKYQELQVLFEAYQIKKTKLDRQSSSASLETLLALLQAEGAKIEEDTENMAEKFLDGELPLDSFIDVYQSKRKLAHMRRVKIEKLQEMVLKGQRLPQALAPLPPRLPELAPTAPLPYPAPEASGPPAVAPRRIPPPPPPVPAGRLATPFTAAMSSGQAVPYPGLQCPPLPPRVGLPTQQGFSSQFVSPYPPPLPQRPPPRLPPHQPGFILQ

[2] = target: T2, ALIX, full-length, Cy3-labeled (human, UniProt Q8WUM4 1-868, sulpho-Cy3 maleimide on native surface-exposed cysteines); experiment: recruitment to giant unilamellar vesicles (GUVs), confocal fluorescence microscopy; ALIX pathway: ALG-2 200 nM, ALIX 100 nM, with or without CHMP4B 10 nM, incubated 15 min in reaction buffer (25 mM Hepes pH 7.4, 125 mM NaCl, 0.2 mM TCEP), then added to 30% DOPS GUVs and imaged after 15 min at room temperature; read-out: puncta on the GUV periphery and their colocalization; details: both partners purified
T2 construct: ALIX (PDCD6IP), ESCRT accessory protein with Bro1 domain, V domain and proline-rich domain; also called ALIX (Cy3); source: HEK293 cells, purified (StrepTactin Sepharose, gel filtration)
T2 sequence (looked up): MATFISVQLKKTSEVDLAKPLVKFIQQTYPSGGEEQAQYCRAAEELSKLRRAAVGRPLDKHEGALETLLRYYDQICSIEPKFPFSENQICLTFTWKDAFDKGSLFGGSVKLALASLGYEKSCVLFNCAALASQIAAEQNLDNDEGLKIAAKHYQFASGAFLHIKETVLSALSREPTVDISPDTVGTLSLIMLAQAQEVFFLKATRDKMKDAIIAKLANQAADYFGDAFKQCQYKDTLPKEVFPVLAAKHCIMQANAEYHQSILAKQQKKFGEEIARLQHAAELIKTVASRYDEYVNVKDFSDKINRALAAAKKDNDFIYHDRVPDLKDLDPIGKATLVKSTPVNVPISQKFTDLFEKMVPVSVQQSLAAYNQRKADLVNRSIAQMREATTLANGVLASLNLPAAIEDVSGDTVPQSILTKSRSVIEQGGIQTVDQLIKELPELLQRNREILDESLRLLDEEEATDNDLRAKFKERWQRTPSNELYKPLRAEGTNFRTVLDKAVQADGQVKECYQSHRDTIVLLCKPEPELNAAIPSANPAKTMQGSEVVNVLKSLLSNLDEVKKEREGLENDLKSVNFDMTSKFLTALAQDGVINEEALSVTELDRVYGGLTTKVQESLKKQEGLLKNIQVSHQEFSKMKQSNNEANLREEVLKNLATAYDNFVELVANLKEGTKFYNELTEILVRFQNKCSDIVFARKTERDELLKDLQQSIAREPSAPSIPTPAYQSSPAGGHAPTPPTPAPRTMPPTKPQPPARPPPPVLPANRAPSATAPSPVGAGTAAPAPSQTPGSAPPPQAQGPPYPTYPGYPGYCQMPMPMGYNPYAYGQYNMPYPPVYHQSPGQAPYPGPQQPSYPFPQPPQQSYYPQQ

binding result [1]: binds
binding result [2]: binds
B1: ALG-2, fluorescently labeled (Atto 488) via A78C (natural protein, UniProt O75340 1-191, looked up)
chain: MAAYSYRPGPGAGPGPAAGAALPDQSFLWNVFQRVDKDRSGVISDTELQQALSNGTWTPFNPVTVRSIISMFDRENKCGVNFSEFTGVWKYITDWQNVFRTYDRDNSGMIDKNELKQALSGFGYRLSDQFHDILIRKFDRQGRGQIAFDDFIQGCIVLQRLTDIFRRYDTDQDGWIQVSYEQYLSMVFSIV
modifications: Atto 488 maleimide on the cysteine of A78C (25% labeling efficiency)
notes: also called ALG-2 (Atto 488); labeled ALG-2; source: E. coli BL21 (DE3), purified (Ni-NTA, gel filtration, anion exchange, gel filtration)
